One molecule from publication PMC10492923 (MedComm, 2023) can be followed below.

For the test, the target named is T1, extracellular protease domain of wild-type ACE2 (human, UniProt Q9BYF1 19-615).
T1 construct: also called WT ACE2ecd; ACE2ecd
As to the kind of experiment: SPR. The conditions noted are these: both partners purified.

T1 sequence (Q9BYF1 19-615): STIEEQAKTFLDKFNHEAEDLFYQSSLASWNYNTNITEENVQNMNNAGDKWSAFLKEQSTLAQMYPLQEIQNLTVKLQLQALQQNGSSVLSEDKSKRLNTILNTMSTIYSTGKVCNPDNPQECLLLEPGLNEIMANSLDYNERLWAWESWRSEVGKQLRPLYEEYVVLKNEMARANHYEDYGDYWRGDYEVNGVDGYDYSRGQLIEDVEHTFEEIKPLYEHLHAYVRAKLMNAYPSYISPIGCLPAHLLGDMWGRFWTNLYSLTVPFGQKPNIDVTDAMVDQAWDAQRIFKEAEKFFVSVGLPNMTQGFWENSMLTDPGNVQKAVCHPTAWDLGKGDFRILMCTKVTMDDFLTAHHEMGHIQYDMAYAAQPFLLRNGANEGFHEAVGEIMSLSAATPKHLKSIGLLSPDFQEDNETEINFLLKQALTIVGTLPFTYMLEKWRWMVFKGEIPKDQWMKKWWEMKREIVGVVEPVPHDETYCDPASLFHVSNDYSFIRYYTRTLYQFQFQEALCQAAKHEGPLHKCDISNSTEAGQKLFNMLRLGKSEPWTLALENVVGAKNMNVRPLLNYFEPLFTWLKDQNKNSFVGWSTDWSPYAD

B1: RBD of HCoV-NL63 (domain or fragment)
chain: QHTDINFTATASFGGSCYVCKPHQVNISLNGNTSVCVRTSHFSIRYIYNRVKSGSPGDSSWHIYLKSGTCPFSFSKLNNFQKFKTICFSTVEVPGSCNFPLEATWHYTSYTIVGALYVTWSEGNSITGVPYPVSGI
B1: the binding result is recorded as “binds”.
